# Laboratory results reported in patent US20250011411A1 (JIANGSU HENGRUI PHARMACEUTICALS, published 2025).
# T1: human sclerostin (SOST) (human, UniProt Q9BQB4 24-213)
# T1 construct: also called human SOST; h-SOST
# T1 sequence (looked up): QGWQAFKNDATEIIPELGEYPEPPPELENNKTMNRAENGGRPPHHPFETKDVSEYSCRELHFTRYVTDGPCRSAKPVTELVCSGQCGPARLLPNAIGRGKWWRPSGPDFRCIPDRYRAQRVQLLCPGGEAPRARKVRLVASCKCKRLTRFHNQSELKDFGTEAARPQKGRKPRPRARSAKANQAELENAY
# Tests used:
# human sclerostin (SOST) [1] = target: T1, human sclerostin (SOST); assay: ELISA binding to human sclerostin (assay not given; taken from the text of Example 1)
# human sclerostin (SOST) [2] = target: T1, human sclerostin (SOST); assay: blocking of the binding of human SOST to human LRP-6
# human sclerostin (SOST) [3] = target: T1, human sclerostin (SOST); assay: binding ELISA, antigen-receptor binding blocking experiments, Biacore; no numbers given
EC50 (human sclerostin (SOST) [1]) [nM],IC50 (human sclerostin (SOST) [2]) [nM],binding result (human sclerostin (SOST) [3]),Binder
0.701,9.91,–,"murine anti-human SOST monoclonal antibody Ab-1 (antibody, V domains shown, Murine hybridoma antibody; also called monoclonal hybridoma cell strain Ab-1; murine antibody Ab-1) VH: EVQLQQSGPELVKPGTSVKIPCQTSGYTFTDYNLDWLKQRPGESLEWIGDIDPNNGDILYNQKFRDKATLTVDTSSNTAYLELRSLTSEDTAVYYCARRWAYYFDYWGQGTTLTISS VL: NIVMTQTPKLLFVSAGDRITITCKASQSVSNDVAWYQQKPGQSPKLLIYYTSNRFTGVPDRFTGSGYGTDFTLTINTVQAEDLAVYFCQQDYSSPVTFGAGTKLELK"
–,–,binds,"humanized anti-SOST antibody Ab-5 (antibody, human IgG4 S228P, kappa, V domains shown, Human IgG4 heavy chain and kappa light chain) VH: EVQLVQSGAEVKKPGASVKVSCKASGYTFTDYNLDWLRQAPGEGLEWIGDIDPNDGDILYNQKFRDRVTMTTDTSTSTAYMELRSLRSDDTAVYYCARRWAYYFDYWGQGTTVTVSS VL: DIVMTQSPSSLSASVGDRVTITCKASQSVSNDVAWYQQKPGKSPKLLIYYTSNRFTGVPDRFSGSGSGTDFTLTISSLQPEDFATYFCQQDYSSPVTFGGGTKVEIKR"
–,–,binds,"humanized anti-SOST antibody Ab-9 (antibody, human IgG4 S228P, kappa, V domains shown, Human IgG4 heavy chain and kappa light chain) VH: EVQLVQSGAEVKKPGASVKVSCKASGYTFTDYNLDWLRQAPGEGLEWIGDIDPNNGDILYNQKFRDRVTMTTDTSTSTAYMELRSLRSDDTAVYYCARRWAYYFDYWGQGTTVTVSS VL: NIVMTQSPSSLSASVGDRVTITCKASQSVSNDVAWYQQKPGKSPKLLIYYTSNRFTGVPDRFSGSGSGTDFTLTISSLQPEDFATYFCQQDYSSPVTFGGGTKVEIKR"
–,–,binds,"humanized anti-SOST antibody Ab-10 (antibody, human IgG1, kappa, V domains shown, kappa light chain) VH: EVQLVQSGAEVKKPGASVKVSCKASGYTFTDYNLDWVRQAPGQGLEWMGDIDPNNGDILYNQKFRDRVTMTTDTSTSTAYMELRSLRSDDTAVYYCARRWAYYFDYWGQGTTVTVSS VL: DIQMTQSPSSLSASVGDRVTITCKASQSVSNDVAWYQQKPGKAPKLLIYYTSNRFTGVPSRFSGSGSGTDFTLTISSLQPEDFATYYCQQDYSSPVTFGGGTKVEIKR"
